{
  "source": "patent US20230392126A1",
  "about": "“TISSUE ORGANOIDS” (priority 2016, published 2023)",
  "molecules": {"B1": {"name": "hBChE: modified human butyrylcholinesterase (E30-6, SEQ ID NO: 41), cocaine hydrolase, expressed from engineered epidermal cells / skin grafts (protein)", "chain": "MHSKVTIICIRFLFWFLLLCMLIGKSHTEDDIIIATKNGKVRGMNLTVFGGTVTAFLGIPYAQPPLGRLRFKKPQSLTKWSDIWNATKYANSCCQNIDQSFPGFHGSEMWNPNTDLSEDCLYLNVWIPAPKPKNATVLIWIYGGGFQTGTSSLHVYDGKFLARVERVIVVSMNYRVGALGFLALPGNPEAPGNMGLFDQQLALQWVQKNIAAFGGNPKSVTLFGESSGAASVSLHLLSPGSHSLFTRAILQSGSANAPWAVTSLYEARNRTLNLAKLTGCSRENETEIIKCLRNKDPQEILLNEAFVVPYGTALGVNFGPTVDGDFLTDMPDILLELGQFKKTQILVGVNKDEGTWFLVGGAPGFSKDNNSIITRKEFQEGLKIFFPGVSEFGKESILFHYTDWVDDQRPENYREALGDVVGDYNFICPALEFTKKFSEWGNNAFFYYFEHRSSKLPWPEWMGVMHGYEIEFVFGLPLERRDNYTKAEEILSRSIVKRWANFAKYGNPNETQNNSTSWPVFKSTEQKYLTLNTESTRIMTKLRAQQCRFWTSFFPKVLEMTGNIDEAEWEWKAGFHRWNNYMMDWKNQFNDYTSKKESCVGL", "modifications": "Human mutant BChE"}},
  "key": {"[1]": {"settings": "cocaine hydrolysis; cited from earlier work"}, "[2]": {"assay": "Acute drug overdose test: METH-induced lethality", "assay_type": "in vivo, mouse", "settings": "34, 68, 100, 160 mg/kg METH i.p.", "procedure": "For all behavioral experiments except where noted, C57BL/6J mice were used. Roughly equal numbers of adult male and female mice were group-housed until surgery. Mice were maintained under controlled temperature and humidity conditions on a 12 h:12 h light:dark cycle (lights on at 7:00). Water and food were available ad libitum. Mice weighed around 25-30 g at the beginning of the experiments. All procedures followed National Institutes of Health Guide for the Care and Use of Laboratory Animal and were approved by the University of Chicago Institutional Animal Care and Use Committee.\nDrug: Cocaine HCl and methamphetamine HCl (Sigma-Aldrich, Saint Louis, MO) were dissolved in sterile saline and delivered intraperitoneally at appropriates doses in a volume of 10 mL/kg. […]\nAcute drug overdose test: Two weeks after grafting surgery, 4 groups of GhBChE and 4 groups of GWT mice (n=8 each in each group) received i.p. injections of cocaine at 40, 120, and 160 mg/kg. […] Mice were monitored for 2 h following injection and percent of cocaine- and METH-induced lethality was calculated.\nTo first determine whether engrafting hBChE-expressing cells protects mice from acute systemic toxicity of cocaine, we delivered different doses of cocaine to grafted mice and calculated the lethality rates of cocaine. […]"}, "[3]": {"tested_on": "human epidermal keratinocytes", "assay": "Cell proliferation and differentiation of engineered human epidermal cells in vitro", "assay_type": "cell-based", "procedure": "Primary human neonatal epidermal keratinocytes were obtained from Thermo Fischer® (C0015C), and cultured with Epilife® medium (Thermo Fischer, M-EPICF-500) with manufacturer's recommended procedures. Calcium shift was performed to induce differentiation of primary keratinocytes by increasing the calcium concentration in culture media to 1.5 mM.\nPropidium iodide (PI) staining followed by flow cytometry were used to determine the effect of cell cycle profiles. Mouse and human epidermal cells were cultured in two 6 cm cell culture dish for 24 hours, respectively. Cells were trypsinized, and 1×10^5 cells from each dish were collected, followed by one PBS wash. […] After staining, the cells were analyzed immediately using flow cytometer BD FACSCanto™ II (BD Biosciences, San Jose, CA) with an excitation wavelength at 488 nm and emission at 585 nm. DNA content and histograms of cell cycle distribution were analyzed using FlowJo™ software, version 10 (FLOWJO LLC, OR).\nWestern blotting was performed as described previously (Blanpain et al.). […] Visualization and quantification was carried out with the LI-COR Odyssey® scanner and software (LI-COR Biosciences).\nPropidium iodide (PI) staining followed by flow cytometry were used to determine the effect of cell cycle profiles. […] DNA content and histograms of cell cycle distribution were analyzed using FlowJo™ software, version 10 (FLOWJO LLC, OR). […]"}, "[4]": {"assay": "hBChE in blood by ELISA, nude mice grafted with human skin organoids"}},
  "data": [
    {"molecule": "B1", "values": [
      {"measurement": "catalytic efficiency (kcat/KM) relative to wild-type (WT) hBChE", "setting": "[1]", "result": "more than 4400 times"},
      {"measurement": "METH-induced lethality, GhBChE vs GWT", "setting": "[2]", "result": "no difference in lethality"},
      {"measurement": "effect of expression on cell proliferation / differentiation in vitro", "setting": "[3]", "result": "did not significantly change cell proliferation"},
      {"measurement": "duration of stable hBChE expression in vivo", "setting": "[4]; human grafts", "result": "more than 8 weeks"},
      {"measurement": "level of human BChE in the blood", "setting": "[4]; human hBChE-expressing grafts", "result": "significantly levels of human BChE in the blood"}
    ]}
  ]
}
